In article PMC7615931 (Science (New York, N.Y.), 2024):

How the values were obtained:
cryo-EM structure = molecular target: the molecule itself; test: cryo-EM structure
negative-staining EM = molecular target: the molecule itself; test: negative-staining EM

B1: β-arrestin 2 (βarr2), wild-type, full-length (natural protein, UniProt P32120 1-420, looked up)
chain: MGEKPGTRVFKKSSPNCKLTVYLGKRDFVDHLDKVDPVDGVVLVDPDYLKDRKVFVTLTCAFRYGREDLDVLGLSFRKDLFIANYQAFPPTPNPPRPPTRLQERLLRKLGQHAHPFFFTIPQNLPCSVTLQPGPEDTGKACGVDFEIRAFCAKSLEEKSHKRNSVRLVIRKVQFAPEKPGPQPSAETTRHFLMSDRSLHLEASLDKELYYHGEPLNVNVHVTNNSTKTVKKIKVSVRQYADICLFSTAQYKCPVAQVEQDDQVSPSSTFCKVYTITPLLSNNREKRGLALDGKLKHEDTNLASSTIVKEGANKEVLGILVSYRVKVKLVVSRGGDVSVELPFVLMHPKPHDHIALPRPQSAATHPPTLLPSAVPETDAPVDTNLIEFETNYATDDDIVFEDFARLRLKGLKDEDYDDQFC
- stoichiometry N (cryo-EM structure): 2
- stoichiometry N (negative-staining EM): 3
